From patent US20220372168A1

Target: human FGFR1c/KLB receptor complex on cells (human) (UniProt P11362)
Assay: cell-based or functional assay

Chain of human FGFR1c/KLB receptor complex on cells (human) (P11362 other isoform, or with tags, fused parts or gaps limits assumed, chain 1 of 2): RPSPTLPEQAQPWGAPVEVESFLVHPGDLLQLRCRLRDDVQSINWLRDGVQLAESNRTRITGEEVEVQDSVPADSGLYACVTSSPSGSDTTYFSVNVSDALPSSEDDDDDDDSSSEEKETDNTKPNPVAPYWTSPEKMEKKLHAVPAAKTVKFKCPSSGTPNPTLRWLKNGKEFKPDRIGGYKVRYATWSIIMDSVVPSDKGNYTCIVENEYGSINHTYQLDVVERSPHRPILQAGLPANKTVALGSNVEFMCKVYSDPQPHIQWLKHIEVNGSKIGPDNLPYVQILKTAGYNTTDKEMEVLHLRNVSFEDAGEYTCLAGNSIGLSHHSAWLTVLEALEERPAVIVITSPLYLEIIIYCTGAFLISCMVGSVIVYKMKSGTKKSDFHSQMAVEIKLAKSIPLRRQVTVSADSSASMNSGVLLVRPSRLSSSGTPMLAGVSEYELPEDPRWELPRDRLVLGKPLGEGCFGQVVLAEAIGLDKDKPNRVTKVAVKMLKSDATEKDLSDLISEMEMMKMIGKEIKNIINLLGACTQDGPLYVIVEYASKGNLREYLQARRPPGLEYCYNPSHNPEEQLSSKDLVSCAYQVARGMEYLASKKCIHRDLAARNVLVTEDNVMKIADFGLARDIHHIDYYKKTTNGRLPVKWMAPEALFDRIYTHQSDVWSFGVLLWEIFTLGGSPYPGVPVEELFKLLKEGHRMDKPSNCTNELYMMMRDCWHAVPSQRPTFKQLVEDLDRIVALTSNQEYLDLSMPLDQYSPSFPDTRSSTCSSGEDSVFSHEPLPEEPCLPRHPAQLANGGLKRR
Chain of human FGFR1c/KLB receptor complex on cells (human) (chain, as listed by the source limits assumed, chain 2 of 2): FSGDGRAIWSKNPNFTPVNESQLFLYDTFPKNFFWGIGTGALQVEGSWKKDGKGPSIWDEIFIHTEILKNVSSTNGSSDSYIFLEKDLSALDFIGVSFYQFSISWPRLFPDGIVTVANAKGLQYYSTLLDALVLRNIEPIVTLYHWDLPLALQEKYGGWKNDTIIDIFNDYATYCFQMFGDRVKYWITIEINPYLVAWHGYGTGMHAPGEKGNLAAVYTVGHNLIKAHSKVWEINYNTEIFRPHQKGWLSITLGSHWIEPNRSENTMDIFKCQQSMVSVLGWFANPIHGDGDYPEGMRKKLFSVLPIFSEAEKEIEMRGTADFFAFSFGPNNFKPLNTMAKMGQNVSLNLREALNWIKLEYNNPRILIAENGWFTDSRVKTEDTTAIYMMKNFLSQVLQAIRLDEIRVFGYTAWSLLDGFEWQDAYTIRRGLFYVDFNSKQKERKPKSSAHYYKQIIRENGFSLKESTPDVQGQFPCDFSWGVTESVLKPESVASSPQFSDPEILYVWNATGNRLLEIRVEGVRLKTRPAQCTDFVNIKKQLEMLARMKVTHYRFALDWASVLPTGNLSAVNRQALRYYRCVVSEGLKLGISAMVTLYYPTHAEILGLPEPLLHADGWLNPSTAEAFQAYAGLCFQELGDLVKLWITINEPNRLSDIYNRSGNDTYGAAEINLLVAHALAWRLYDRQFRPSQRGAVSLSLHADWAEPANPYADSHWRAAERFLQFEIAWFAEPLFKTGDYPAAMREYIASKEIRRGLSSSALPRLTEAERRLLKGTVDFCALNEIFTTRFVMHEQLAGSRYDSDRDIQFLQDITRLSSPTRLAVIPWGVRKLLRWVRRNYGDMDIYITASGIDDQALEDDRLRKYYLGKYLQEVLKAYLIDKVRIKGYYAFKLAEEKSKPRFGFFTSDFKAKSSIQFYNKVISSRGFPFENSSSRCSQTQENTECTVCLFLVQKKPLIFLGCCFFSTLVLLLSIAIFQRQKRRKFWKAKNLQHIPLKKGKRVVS

REGN1438 (6His-FGF21) (from UniProt Q9NSA1 29-209) (ligand)
% Act: 100% | EC50: 2.9 nM | Percent Activity %: 100%
